In IntAct's records for PubMed 17314099:

B1: Serine-threonine kinase receptor-associated protein (Homo sapiens), Q9Y3F4 (parent)
chain: MAMRQTPLTCSGHTRPVVDLAFSGITPYGYFLISACKDGKPMLRQGDTGDWIGTFLGHKGAVWGATLNKDATKAATAAADFTAKVWDAVSGDELMTLAHKHIVKTVDFTQDSNYLLTGGQDKLLRIYDLNKPEAEPKEISGHTSGIKKALWCSEDKQILSADDKTVRLWDHATMTEVKSLNFNMSVSSMEYIPEGEILVITYGRSIAFHSAVSLDPIKSFEAPATINSASLHPEKEFLVAGGEDFKLYKYDYNSGEELESYKGHFGPIHCVRFSPDGELYASGSEDGTLRLWQTVVGKTYGLWKCVLPEEDSGELAKPKIGFPETTEEELEEIASENSDCIFPSAPDVKA

Assays:
Conditions in all cases: with ndka_human NME1, P15531
ndka_human NME1, P15531 [1] = variants of: B1
ndka_human NME1, P15531 [2] = variants of: B1; remark: listed apart in the source
ndka_human NME1, P15531 [3] = variants of: B1; remark: listed apart in the source

Chain of ndka_human NME1, P15531 (P15531 whole entry): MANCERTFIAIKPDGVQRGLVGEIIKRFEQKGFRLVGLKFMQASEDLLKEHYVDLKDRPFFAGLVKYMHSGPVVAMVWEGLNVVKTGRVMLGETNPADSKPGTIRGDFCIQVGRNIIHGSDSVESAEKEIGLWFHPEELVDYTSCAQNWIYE

effect of a mutation on the interaction (ndka_human NME1, P15531 [1])	effect of a mutation on the interaction (ndka_human NME1, P15531 [2])	effect of a mutation on the interaction (ndka_human NME1, P15531 [3])	Variant
decreasing interaction	disrupting interaction		C270S
decreasing interaction	disrupting interaction		C152S
disrupting interaction		decreasing interaction	C152S;C270S
